Source: article PMC6945063 (2019)

Molecular target: His‐GABARAP‐L2 S87/88D (human, UniProt P60520 1-117, S87/88D | S87/88D)
Assay: BLI

B1: GST‐ATG4A (enzyme)
chain: MESVLSKYEDQITIFTDYLEEYPDTDELVWILGKQHLLKTEKSKLLSDISARLWFTYRRKFSPIGGTGPSSDAGWGCMLRCGQMMLAQALICRHLGRDWSWEKQKEQPKEYQRILQCFLDRKDCCYSIHQMAQMGVGEGKSIGEWFGPNTVAQVLKKLALFDEWNSLAVYVSMDNTVVIEDIKKMCRVLPLSADTAGDRPPDSLTASNQSKGTSAYCSAWKPLLLIVPLRLGINQINPVYVDAFKECFKMPQSLGALGGKPNNAYYFIGFLGDELIFLDPHTTQTFVDTEENGTVNDQTFHCLQSPQRMNILNLDPSVALGFFCKEEKDFDNWCSLVQKEILKENLRMFELVQKHPSHWPPFVPPAKPEVTTTGAEFIDSTEQLEEFDLEEDFEILSV
Kd: 24 µM
